{"source": "patent US20070087448", "key": {"[1]": {"molecular_target": "plasma peptide at m/z=5082±4"}, "[2]": {"molecular_target": "T1, human apolipoprotein C1, common form (m/z=6631)", "T1 chain": "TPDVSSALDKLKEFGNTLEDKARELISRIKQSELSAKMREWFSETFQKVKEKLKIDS"}, "[3]": {"molecular_target": "T2, T45S variant of human apolipoprotein C1 (low mass variant, m/z=6617/6618)", "T2 chain": "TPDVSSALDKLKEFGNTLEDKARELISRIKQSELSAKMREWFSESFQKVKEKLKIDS"}}, "data": [{"protein": "hog kidney dipeptidyl peptidase IV (DPPase IV), purchased from the Sigma Chemical Company (protein) DSRRTYTLTDYLKSTFRVKFYTLQWISDHEYLYKQENNILLFNAEYGNSSIFLENSTFDELGYSTNDYSVSPDRQFILFEYNYVKQWRHSYTASYDIYDLNKRQLITEERIPNNTQWITWSPVGHKLAYVWNNDIYVKNEPNLSSQRITWTGKENVIYNGVTDWVYEEEVFSAYSALWWSPNGTFLAYAQFNDTEVPLIEYSFYSDESLQYPKTVRIPYPKAGAENPTVKFFVVDTRTLSPNASVTSYQIVPPASVLIGDHYLCGVTWVTEERISLQWIRRAQNYSIIDICDYDESTGRWISSVARQHIEISTTGWVGRFRPAEPHFTSDGNSFYKIISNEEGYKHICHFQTDKSNCTFITKGAWEVIGIEALTSDYLYYISNEHKGMPGGRNLYRIQLNDYTKVTCLSCELNPERCQYYSASFSNKAKYYQLRCFGPGLPLYTLHSSSSDKELRVLEDNSALDKMLQDVQMPSKKLDVINLHGTKFWYQMILPPHFDKSKKYPLLIEVYAGPCSQKVDTVFRLSWATYLASTENIIVASFDGRGSGYQGDKIMHAINRRLGTFEVEDQIEATRQFSKMGFVDDKRIAIWGWSYGGYVTSMVLGAGSGVFKCGIAVAPVSKWEYYDSVYTERYMGLPTPEDNLDYYRNSTVMSRAENFKQVEYLLIHGTADDNVHFQQSAQLSKALVDAGVDFQTMWYTDEDHGIASNMAHQHIYTHMSHFLKQCFSLP", "values": [{"measurement": "MALDI-TOF profile after 2 hours of digestion of diluted plasma with 1 unit of enzyme", "setting": "[1]", "result": "The 5082 peak had been completely digested to the 4885 peak"}, {"measurement": "MALDI-TOF profile after incubation of human plasma with the enzyme (conversion of the 6631 peak to the 6433 peak)", "setting": "[2]", "result": "The enzyme converted all of the material in the peak at 6631 to material in the 6433 peak"}, {"measurement": "rate of enzyme cleavage (m/z=6631 conversion to m/z=6433), reference for the T45S variant", "setting": "[2]", "result": "degradation of the more common form of apolipoprotein C1 (m/z=6631 conversion to m/z=6433)"}, {"measurement": "rate of enzyme cleavage (m/z=6618 conversion to m/z=6420) relative to the common form of apolipoprotein C1", "setting": "[3]", "result": "3.1 times the rate of degradation of the more common form of apolipoprotein C1"}]}]}
